Measured values as given in patent publication US20150337019A1 (MANUKAMED HOLDINGS LIMITED PARTNERSHIP, published 2015).

molecular target: T1, Cathepsin B from bovine spleen (bovine, UniProt P07688 80-332); test: cell-based or functional assay

Cathepsin B inhibition test, 2 mM peptide | Binder
71.2 | H-Phe-Asp-Arg-OH (also: MGO-modified, site not given here) [MGO-modified H-FDR-OH]
148 | H-Phe-Thr-Lys-OH [H-FTK-OH]
78.7 | H-IFVTMLR-OH (also: MGO-modified, site not given here) [MGO-modified H-IFVTMLR-OH]
92.6 | Ac-IFVTMLR-OH (also: MGO-modified, site not given here) [MGO-modified Ac-IFVTMLR-OH]
103 | H-HNIR-OH (also: MGO-modified, site not given here) [MGO-modified H-HNIR-OH]
99 | Ac-YINR-OH (also: MGO-modified, site not given here) [MGO-modified Ac-YINR-OH]
44.8 | Ac-Phe-Asp-Arg-OH (also: MGO-modified, site not given here) [MGO-modified Ac-FDR-OH]
105 | Ac-Phe-Thr-Lys-OH (also: MGO-modified, site not given here) [MGO-modified Ac-FTK-OH]
172 | Ac-HNIR-OH [Ac-HNIR-OH]
85.6 | Ac-Phe-Asp-Arg-OH [Ac-FDR-OH]
127 | H-Met-Gln-Lys-OH [H-MQK-OH]
88.3 | Ac-IFVTMLR-OH [Ac-IFVTMLR-OH]
152 | H-HNIR-OH [H-HNIR-OH]
93.1 | Ac-YINR-OH [Ac-YINR-OH]
149 | Ac-Phe-Thr-Lys-OH [Ac-FTK-OH]
142 | H-YINR-OH [H-YINR-OH]
80.5 | H-IFVTMLR-OH [H-IFVTMLR-OH]
76.6 | H-Phe-Thr-Lys-OH (also: MGO-modified, site not given here) [MGO-modified H-FTK-OH]
79.2 | H-YINR-OH (also: MGO-modified, site not given here) [MGO-modified H-YINR-OH]
175 | H-Phe-Asp-Arg-OH [H-FDR-OH]
107 | Ac-HNIR-OH (also: MGO-modified, site not given here) [MGO-modified Ac-HNIR-OH]

molecular target: T1, Cathepsin B from bovine spleen; test: cell-based or functional assay; remark: another data set of the same source

Cathepsin B inhibition test, 2 mM peptide | Binder
86.9 | Ac-Met-Asn-Arg-OH (also: MGO-modified, site not given here) [MGO-modified Ac-MNR-OH]
81.8 | Ac-Ile-Asp-Arg-OH (also: MGO-modified, site not given here) [MGO-modified Ac-IDR-OH]
90.2 | Ac-Leu-Gln-Lys-OH (also: MGO-modified, site not given here) [MGO-modified Ac-LQK-OH]
99.8 | Ac-Val-Asn-Arg-OH [Ac-VNR-OH]
85.6 | H-Ile-Asp-Arg-OH (also: MGO-modified, site not given here) [MGO-modified H-IDR-OH]
80.7 | H-Met-His-Arg-OH (also: MGO-modified, site not given here) [MGO-modified H-MHR-OH]
87.5 | H-Thr-Asp-Lys-OH (also: MGO-modified, site not given here) [MGO-modified H-TDK-OH]
101 | Ac-Thr-Asp-Lys-OH [Ac-TDK-OH]
102 | Ac-Leu-Gln-Lys-OH [Ac-LQK-OH]
96.8 | H-Met-His-Arg-OH [H-MHR-OH]
82.6 | H-Val-Asn-Arg-OH (also: MGO-modified, site not given here) [MGO-modified H-VNR-OH]
95.3 | H-Leu-Gln-Lys-OH (also: MGO-modified, site not given here) [MGO-modified H-LQK-OH]
104 | H-Met-Asp-Lys-OH [H-MDK-OH]
93.5 | Ac-Ile-Asp-Arg-OH [Ac-IDR-OH]
92.8 | Ac-Thr-Asp-Lys-OH (also: MGO-modified, site not given here) [MGO-modified Ac-TDK-OH]
107 | Ac-Met-Asp-Arg-OH [Ac-MDR-OH]
78.6 | H-Met-Asn-Arg-OH (also: MGO-modified, site not given here) [MGO-modified H-MNR-OH]
102 | H-Leu-Gln-Lys-OH [H-LQK-OH]

Cathepsin B inhibition test, 2 mM peptide | Binder
70.6 | H-Met-Asp-Lys-OH (also: MGO-modified, site not given here) [MGO-modified H-MDK-OH]
88.6 | Ac-Met-Asp-Arg-OH (also: MGO-modified, site not given here) [MGO-modified Ac-MDR-OH]
103 | H-Thr-Asp-Lys-OH [H-TDK-OH]
103 | H-Thr-Asn-Arg-OH [H-TNR-OH]
91.9 | H-Thr-Asn-Arg-OH (also: MGO-modified, site not given here) [MGO-modified H-TNR-OH]
99.4 | Ac-Met-Asp-Lys-OH (also: MGO-modified, site not given here) [MGO-modified Ac-MDK-OH]
96.5 | Ac-Thr-Asn-Arg-OH [Ac-TNR-OH]
101 | Ac-Met-Asn-Arg-OH [Ac-MNR-OH]
110 | Ac-Met-Asp-Lys-OH [Ac-MDK-OH]
98 | H-Ile-Asp-Arg-OH [H-IDR-OH]
90.1 | Ac-Met-His-Arg-OH (also: MGO-modified, site not given here) [MGO-modified Ac-MHR-OH]
102 | H-Met-Asp-Arg-OH [H-MDR-OH]
91.7 | Ac-Thr-Asn-Arg-OH (also: MGO-modified, site not given here) [MGO-modified Ac-TNR-OH]
74.5 | H-Met-Asp-Arg-OH (also: MGO-modified, site not given here) [MGO-modified H-MDR-OH]
68.5 | Ac-Val-Asn-Arg-OH (also: MGO-modified, site not given here) [MGO-modified Ac-VNR-OH]
97.8 | H-Val-Asn-Arg-OH [H-VNR-OH]
101 | Ac-Met-His-Arg-OH [Ac-MHR-OH]
